Measured values: paper doi:10.1101/2021.02.24.432656 (bioRxiv, 2021)

Target: Flag-importin α1 (human, UniProt P52292 1-529)
Experiment: pull-down

B1: GST-GFP fused ORF6 full-length protein (natural protein)
chain: MFHLVDFQVTIAEILLIIMRTFKVSIWNLDYIINLIIKNLSKSLTENKYSQLDEEQPMEID
B1: binds.
